The values below come from article doi:10.1101/2024.07.01.601590.

The experiment addresses Fluorescently labelled Asgard ESCRT-IIIB (Heimdallarchaeota archaeon AB_125), full length (Heimdallarchaeota archaeon AB_125). Kind of experiment: TIRF microscopy on supported lipid bilayers.

Some results are limits rather than exact numbers.

“Fluorescently labelled Asgard ESCRT-IIIA (Heimdallarchaeota archaeon AB_125), full length (natural protein)” registered a time to reach plateau of 160 s.
Then “Fluorescently labelled Asgard ESCRT-IIIB (Heimdallarchaeota archaeon AB_125), full length (natural protein)”, with over 1000 s.
